Laboratory results from PMC3659105, “Profiling Epidermal Growth Factor Receptor and Heregulin Receptor 3 Heteromerization Using Receptor Tyrosine Kinase Heteromer Investigation Technology” (PLoS ONE, 2013).

What was measured:
EGFR-HER3 heteromer = molecular target: T1, EGFR-HER3 heteromer (Homo sapiens, UniProt P00533+P21860); test: RTK-HIT BRET between HER3/Rluc8 and Grb2/Venus with untagged EGFR co-expressed; assay type: cell-based; conditions: HEK293FT cells, about 25 minutes of agonist stimulation
T1 construct: used to replace the C terminus of the full-length constructs (with or without Rluc8); host or cells: HEK293FT
Experimental: (§1) HEK293FT cells (Life Technologies) were maintained at 37°C in 5% CO2 and complete media (Dulbecco's modified Eagle's medium (DMEM) containing 0.3 mg/ml glutamine, 100 IU/ml penicillin and 100 µg/ml streptomycin (GIBCO BRL, Carlsbad, CA, USA)) supplemented with 10% foetal calf serum (FCS) and 400 µg/ml Geneticin (Gibco). Transient transfections were carried out 24 h after seeding about 550,000 cells/well of a 6-well plate. Genejuice (Merck, Kilsyth, Australia) transfection reagent was used according to the manufacturer's instructions. Cells were harvested with 0.05% Trypsin-EDTA (Gibco).
(§2) Following initial titration of cDNA amounts (data not shown), two ratios were selected for the heteromer combinations shown in Figure 2. […] BRET measurements were taken at 37°C using the VICTOR Light plate reader with Wallac 1420 software (PerkinElmer, Glen Waverley, Victoria, Australia). Filtered light emissions were sequentially measured at 400–475 and 520–540 nm. The BRET signal was calculated by subtracting the ratio of 520–540 nm emission over 400–475 nm emission for a vehicle-treated cell sample from the same ratio for a second aliquot of the same cells treated with agonist, as described previously, [35].

HER3 = molecular target: T2, HER3 (Homo sapiens, UniProt P21860); test: Ligand-induced BRET between HER3/Rluc8 and Grb2/Venus (+ pcDNA3); assay type: cell-based
T2 construct: used to replace the C terminus of the full-length constructs (with or without Rluc8); host or cells: HEK293FT
T2 sequence (P21860 20-1342): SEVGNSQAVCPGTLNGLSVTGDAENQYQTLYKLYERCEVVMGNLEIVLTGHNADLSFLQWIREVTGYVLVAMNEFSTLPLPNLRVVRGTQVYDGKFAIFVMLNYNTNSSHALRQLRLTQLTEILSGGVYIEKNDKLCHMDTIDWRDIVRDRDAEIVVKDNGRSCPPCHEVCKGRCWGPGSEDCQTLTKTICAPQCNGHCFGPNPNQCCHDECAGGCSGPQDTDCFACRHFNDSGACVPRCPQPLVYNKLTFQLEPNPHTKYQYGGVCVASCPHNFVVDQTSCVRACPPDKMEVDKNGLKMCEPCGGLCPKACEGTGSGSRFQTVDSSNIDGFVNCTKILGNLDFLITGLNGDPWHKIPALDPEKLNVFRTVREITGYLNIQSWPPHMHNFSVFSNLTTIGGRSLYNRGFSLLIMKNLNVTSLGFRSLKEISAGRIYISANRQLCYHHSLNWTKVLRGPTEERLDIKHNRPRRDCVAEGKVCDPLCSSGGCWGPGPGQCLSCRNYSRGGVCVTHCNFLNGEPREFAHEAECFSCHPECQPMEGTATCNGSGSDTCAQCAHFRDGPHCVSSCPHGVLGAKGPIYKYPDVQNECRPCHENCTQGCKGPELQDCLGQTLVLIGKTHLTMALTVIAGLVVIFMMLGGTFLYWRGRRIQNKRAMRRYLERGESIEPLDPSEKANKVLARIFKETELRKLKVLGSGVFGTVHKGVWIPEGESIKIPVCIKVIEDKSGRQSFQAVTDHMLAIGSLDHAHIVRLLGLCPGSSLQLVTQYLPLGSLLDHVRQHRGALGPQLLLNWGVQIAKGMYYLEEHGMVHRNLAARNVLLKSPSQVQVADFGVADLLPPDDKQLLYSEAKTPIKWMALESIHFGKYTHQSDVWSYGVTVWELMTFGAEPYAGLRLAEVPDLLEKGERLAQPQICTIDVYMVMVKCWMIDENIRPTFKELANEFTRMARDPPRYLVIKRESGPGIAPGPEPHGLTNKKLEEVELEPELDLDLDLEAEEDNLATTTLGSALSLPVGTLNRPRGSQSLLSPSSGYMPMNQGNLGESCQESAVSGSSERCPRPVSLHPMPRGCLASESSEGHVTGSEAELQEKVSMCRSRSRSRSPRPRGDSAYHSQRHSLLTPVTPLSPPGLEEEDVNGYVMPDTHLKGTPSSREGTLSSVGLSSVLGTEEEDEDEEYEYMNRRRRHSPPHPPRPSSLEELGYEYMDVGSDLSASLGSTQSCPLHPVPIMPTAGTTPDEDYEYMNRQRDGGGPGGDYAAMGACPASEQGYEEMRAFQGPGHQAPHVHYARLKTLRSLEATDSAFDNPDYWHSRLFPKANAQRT
Experimental: as §1
as §2, with “HEK293FT cells were transiently transfected with” for “Following initial titration of”, “encoding a RTK fused to Rluc8 (RTK/Rluc8) and Grb2 fused to Venus (Grb2/Venus), along with a second RTK that was untagged with respect to BRET signaling, or empty vector (pcDNA3).” for “amounts (data not shown), two ratios were selected for the heteromer combinations shown in Figure 2.”, “[35]. […]” for “[35].”
Data were analyzed using Prism 5 graphing software (GraphPad, La Jolla, CA, USA). […]

Compound: HRG: Heregulin-β1, ligand of HER3
- pEC50 (EGFR-HER3 heteromer): 7.46±0.14 (n = 5)

Compound: COc1cc2ncnc(Nc3cccc(Cl)c3)c2cc1OC.Cl [AG-1478, AG-1478 hydrochloride, reference compound]
- effect on BRET (HER3; increasing concentrations of AG-1478, pre-treated or not with 20 nM EGF or HRG): no effect

Compound: EGF: epidermal growth factor, ligand selective for EGFR
- agonist-induced BRET signal (HER3; HER3/Rluc8 + Grb2/Venus without EGFR, 1 µM agonist, kinetic): no or little BRET signal
